Reference: PMC10983988

Target: T1, m-TREX1 (Three Prime Repair Exonuclease 1, catalytic domain) (mouse, UniProt Q91XB0 1-242)
T1 sequence: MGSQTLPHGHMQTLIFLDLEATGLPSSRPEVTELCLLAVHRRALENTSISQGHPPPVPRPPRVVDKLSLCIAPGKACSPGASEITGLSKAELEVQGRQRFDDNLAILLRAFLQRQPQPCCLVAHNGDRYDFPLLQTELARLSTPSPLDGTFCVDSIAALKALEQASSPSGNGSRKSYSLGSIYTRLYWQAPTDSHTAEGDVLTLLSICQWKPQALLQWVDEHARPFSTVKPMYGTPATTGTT
Test: fluorescence polarization anisotropy

B1: U3 unprocessed (dsDNA)
DNA 1: AGTGAATTAGCCCTTCCAGT
DNA 2: ACTGGAAGGGCTAATTCACT
B1 was tested, and the Kd was 118 ± 8.4 nM.

B2: U3 3'-processed (dsDNA)
DNA 1: AGTGAATTAGCCCTTCCA
DNA 2: ACTGGAAGGGCTAATTCACT
B2 was tested, and the Kd was 216 ± 4.6 nM.
